# Test system: SaiR-His6 (Bacillus anthracis str. Sterne 7702)
# Test: restriction enzyme
substance,measurement,value
spxA2 SaiR site 1 wild-type (oMN14-666/oMN14-667),K half,6 nM

# Source: PMC4258114
